The record followed here is the supplement of paper PMC9112550, “Optimization of the antimicrobial peptide Bac7 by deep mutational scanning” (BMC Biology, 2022).
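Further: peptides expressed intracellularly from a pBAD plasmid library in pooled LB shake-flask culture, induced with 0.3% L-arabinose, DNA abundance read by NGS, three biological replicates, DESeq2 with apeglm shrinkage.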

The series deals with Escherichia coli TOP10. Kind of series: shrunken log2 fold change of peptide-encoding DNA abundance (4.5 h post-induction vs induction); higher = less antimicrobial activity (less host growth inhibition). The following applies: time post-induction: 4.5 h; library: site-saturation at positions 5, 18, 19, 20.
Regarding RRIRSRPPRLPRPRPRPVYKPRP, the “shrunken log2 fold change” value was -0.166.

As for RRIRGRPPRLPRPRPRPQFWPRP, the “shrunken log2 fold change” value stood at 0.553.

Consider RRIRVRPPRLPRPRPRPCTIPRP, for which the “shrunken log2 fold change” value is -0.0586.

Turning to RRIRPRPPRLPRPRPRPNGNPRP, the “shrunken log2 fold change” value was -0.144.

As to RRIRDRPPRLPRPRPRPIREPRP, the “shrunken log2 fold change” value is -0.00227.

As to RRIRRRPPRLPRPRPRPFNMPRP, the “shrunken log2 fold change” value is -0.362.

Regarding RRIRARPPRLPRPRPRPNECPRP, the “shrunken log2 fold change” value was -0.409.

For RRIRNRPPRLPRPRPRPDIHPRP, the “shrunken log2 fold change” value is -0.0173.

RRIRYRPPRLPRPRPRPGGWPRP: the “shrunken log2 fold change” value was 0.645.

Consider RRIRHRPPRLPRPRPRPTHWPRP, for which the “shrunken log2 fold change” value worked out at 0.706.

Consider RRIRGRPPRLPRPRPRPGDVPRP, for which the “shrunken log2 fold change” value came to 0.347.

With RRIRSRPPRLPRPRPRPVYEPRP, the “shrunken log2 fold change” value was -0.617.

On to RRIRARPPRLPRPRPRPMEQPRP, for which the “shrunken log2 fold change” value stood at 0.0309.

In the case of RRIRMRPPRLPRPRPRPSILPRP, the “shrunken log2 fold change” value turned out to be 0.0568.

Take RRIRFRPPRLPRPRPRPIRYPRP: the “shrunken log2 fold change” value was -0.125.

Take RRIRRRPPRLPRPRPRPFREPRP: the “shrunken log2 fold change” value is 0.163.

Consider RRIRCRPPRLPRPRPRPRQDPRP, for which the “shrunken log2 fold change” value is -0.0742.

For RRIRMRPPRLPRPRPRPLKRPRP, the “shrunken log2 fold change” value was determined as 0.0303.

Consider RRIRVRPPRLPRPRPRPTLGPRP, for which the “shrunken log2 fold change” value was determined as 0.213.

As for RRIRLRPPRLPRPRPRPMRLPRP, the “shrunken log2 fold change” value stood at 0.0402.

As for RRIRQRPPRLPRPRPRPAYEPRP, the “shrunken log2 fold change” value was -0.00926.

In the case of RRIRCRPPRLPRPRPRPTLDPRP, the “shrunken log2 fold change” value is 0.337.

As to RRIRDRPPRLPRPRPRPNFCPRP, the “shrunken log2 fold change” value is -0.00997.

For RRIRNRPPRLPRPRPRPHERPRP, the “shrunken log2 fold change” value was -0.13.

Regarding RRIRNRPPRLPRPRPRPPCAPRP, the “shrunken log2 fold change” value is -0.0473.

On to RRIRVRPPRLPRPRPRPNYCPRP, for which the “shrunken log2 fold change” value is -0.157.

As to RRIRARPPRLPRPRPRPLPQPRP, the “shrunken log2 fold change” value was 0.64.

For RRIRHRPPRLPRPRPRPWLYPRP, the “shrunken log2 fold change” value is -0.217.

As to RRIRIRPPRLPRPRPRPEQNPRP, the “shrunken log2 fold change” value was -0.204.

Consider RRIRPRPPRLPRPRPRPCWRPRP, for which the “shrunken log2 fold change” value stood at 0.00714.

On to RRIRKRPPRLPRPRPRPKMSPRP, for which the “shrunken log2 fold change” value is -0.315.

On to RRIRRRPPRLPRPRPRPQSHPRP, for which the “shrunken log2 fold change” value is -0.0536.

RRIRFRPPRLPRPRPRPVTVPRP: the “shrunken log2 fold change” value is -0.264.

Turning to RRIRERPPRLPRPRPRPNYTPRP, the “shrunken log2 fold change” value is -0.773.

In the case of RRIRPRPPRLPRPRPRPFPEPRP, the “shrunken log2 fold change” value stood at 0.0208.

For the sequence RRIRPRPPRLPRPRPRPYIWPRP, the “shrunken log2 fold change” value was -0.267.

Regarding RRIRTRPPRLPRPRPRPKHAPRP, the “shrunken log2 fold change” value was 0.0369.

Consider RRIRHRPPRLPRPRPRPTLKPRP, for which the “shrunken log2 fold change” value stood at 1.82.

Regarding RRIRCRPPRLPRPRPRPNRDPRP, the “shrunken log2 fold change” value was -0.167.

Regarding RRIRERPPRLPRPRPRPLRCPRP, the “shrunken log2 fold change” value was determined as 0.187.

On to RRIRFRPPRLPRPRPRPVFMPRP, for which the “shrunken log2 fold change” value is -0.0805.

Take RRIRERPPRLPRPRPRPEASPRP: the “shrunken log2 fold change” value was -0.0341.

As for RRIRRRPPRLPRPRPRPWIAPRP, the “shrunken log2 fold change” value is -0.00369.

Turning to RRIRGRPPRLPRPRPRPIKRPRP, the “shrunken log2 fold change” value came to 0.171.

With RRIRIRPPRLPRPRPRPMFYPRP, the “shrunken log2 fold change” value was -1.25.

As to RRIRGRPPRLPRPRPRPPDFPRP, the “shrunken log2 fold change” value is 0.46.

Turning to RRIRDRPPRLPRPRPRPALTPRP, the “shrunken log2 fold change” value came to 0.468.

Regarding RRIRQRPPRLPRPRPRPDERPRP, the “shrunken log2 fold change” value is -0.00664.

Turning to RRIRWRPPRLPRPRPRPMQRPRP, the “shrunken log2 fold change” value worked out at 0.667.

In the case of RRIRARPPRLPRPRPRPWSWPRP, the “shrunken log2 fold change” value stood at 0.109.

Consider RRIRFRPPRLPRPRPRPKNMPRP, for which the “shrunken log2 fold change” value is -0.724.

In the case of RRIRARPPRLPRPRPRPTQKPRP, the “shrunken log2 fold change” value was -0.0406.

With RRIRIRPPRLPRPRPRPTQTPRP, the “shrunken log2 fold change” value is 0.0595.

For the sequence RRIRKRPPRLPRPRPRPKVCPRP, the “shrunken log2 fold change” value was -0.0666.

In the case of RRIRGRPPRLPRPRPRPSMRPRP, the “shrunken log2 fold change” value amounted to 1.15.

As for RRIRERPPRLPRPRPRPRFNPRP, the “shrunken log2 fold change” value was -0.453.

With RRIRLRPPRLPRPRPRPPWQPRP, the “shrunken log2 fold change” value stood at 0.594.

As for RRIRDRPPRLPRPRPRPHMTPRP, the “shrunken log2 fold change” value is -0.0927.

Regarding RRIRGRPPRLPRPRPRPSNYPRP, the “shrunken log2 fold change” value is -0.0111.

As to RRIRLRPPRLPRPRPRPEINPRP, the “shrunken log2 fold change” value was -0.0201.

Regarding RRIRARPPRLPRPRPRPIMNPRP, the “shrunken log2 fold change” value is -0.151.

Consider RRIRTRPPRLPRPRPRPIIFPRP, for which the “shrunken log2 fold change” value is -0.0206.

Take RRIRWRPPRLPRPRPRPSQYPRP: the “shrunken log2 fold change” value is -0.41.

In the case of RRIRIRPPRLPRPRPRPTDHPRP, the “shrunken log2 fold change” value was -0.368.

RRIRKRPPRLPRPRPRPDNKPRP: the “shrunken log2 fold change” value is -0.119.

RRIRARPPRLPRPRPRPNSDPRP: the “shrunken log2 fold change” value worked out at 0.0804.

With RRIRCRPPRLPRPRPRPECGPRP, the “shrunken log2 fold change” value came out at 0.436.

With RRIRVRPPRLPRPRPRPGPSPRP, the “shrunken log2 fold change” value was 0.201.

Regarding RRIRFRPPRLPRPRPRPCRHPRP, the “shrunken log2 fold change” value came out at 0.0121.

On to RRIRQRPPRLPRPRPRPPLCPRP, for which the “shrunken log2 fold change” value turned out to be 0.28.

Regarding RRIRFRPPRLPRPRPRPLFHPRP, the “shrunken log2 fold change” value was -0.632.

Take RRIRERPPRLPRPRPRPFPKPRP: the “shrunken log2 fold change” value turned out to be 0.459.

As to RRIRWRPPRLPRPRPRPYPVPRP, the “shrunken log2 fold change” value was determined as 3.67.

RRIRHRPPRLPRPRPRPVVDPRP: the “shrunken log2 fold change” value was -0.109.

For the sequence RRIRYRPPRLPRPRPRPKGNPRP, the “shrunken log2 fold change” value was -0.423.

As to RRIRERPPRLPRPRPRPCGWPRP, the “shrunken log2 fold change” value turned out to be 0.154.

RRIRQRPPRLPRPRPRPWRPPRP: the “shrunken log2 fold change” value turned out to be 0.143.

On to RRIRCRPPRLPRPRPRPTDFPRP, for which the “shrunken log2 fold change” value is -0.759.

As to RRIRFRPPRLPRPRPRPLLKPRP, the “shrunken log2 fold change” value was -0.321.

Take RRIRHRPPRLPRPRPRPRKNPRP: the “shrunken log2 fold change” value turned out to be 0.00268.

Regarding RRIRKRPPRLPRPRPRPPQDPRP, the “shrunken log2 fold change” value was 0.636.

As for RRIRWRPPRLPRPRPRPEFKPRP, the “shrunken log2 fold change” value turned out to be 0.0019.

As to RRIRNRPPRLPRPRPRPHEYPRP, the “shrunken log2 fold change” value was -0.048.

In the case of RRIRWRPPRLPRPRPRPAMHPRP, the “shrunken log2 fold change” value turned out to be 0.341.

For the sequence RRIRIRPPRLPRPRPRPYGVPRP, the “shrunken log2 fold change” value was -0.266.

For RRIRTRPPRLPRPRPRPCQSPRP, the “shrunken log2 fold change” value was 0.183.

Turning to RRIRMRPPRLPRPRPRPNHLPRP, the “shrunken log2 fold change” value is -0.0575.

In the case of RRIRPRPPRLPRPRPRPFVPPRP, the “shrunken log2 fold change” value amounted to 0.0581.

With RRIRYRPPRLPRPRPRPHVQPRP, the “shrunken log2 fold change” value was -0.0701.

In the case of RRIRFRPPRLPRPRPRPGCWPRP, the “shrunken log2 fold change” value is 0.524.

As for RRIRARPPRLPRPRPRPELEPRP, the “shrunken log2 fold change” value came out at 1.88.

As to RRIRMRPPRLPRPRPRPAIRPRP, the “shrunken log2 fold change” value is -0.0476.

As for RRIRERPPRLPRPRPRPNQHPRP, the “shrunken log2 fold change” value was -0.228.

Take RRIRRRPPRLPRPRPRPKMYPRP: the “shrunken log2 fold change” value was -0.258.

As to RRIRNRPPRLPRPRPRPPGDPRP, the “shrunken log2 fold change” value worked out at 0.127.

For RRIRTRPPRLPRPRPRPYLDPRP, the “shrunken log2 fold change” value was -0.381.

Regarding RRIRIRPPRLPRPRPRPIDEPRP, the “shrunken log2 fold change” value is 0.0184.

As to RRIRHRPPRLPRPRPRPPGCPRP, the “shrunken log2 fold change” value came out at 0.184.

On to RRIRARPPRLPRPRPRPRSGPRP, for which the “shrunken log2 fold change” value was 0.537.

For RRIRGRPPRLPRPRPRPIRGPRP, the “shrunken log2 fold change” value was 0.29.

In the case of RRIRDRPPRLPRPRPRPGIEPRP, the “shrunken log2 fold change” value came out at 0.103.

In the case of RRIRNRPPRLPRPRPRPVTHPRP, the “shrunken log2 fold change” value was 0.0124.

RRIRIRPPRLPRPRPRPEEFPRP: the “shrunken log2 fold change” value is -0.0304.

As for RRIRWRPPRLPRPRPRPEPFPRP, the “shrunken log2 fold change” value was -0.0317.

RRIRKRPPRLPRPRPRPDNHPRP: the “shrunken log2 fold change” value is -0.715.

RRIRLRPPRLPRPRPRPYPCPRP: the “shrunken log2 fold change” value was determined as 0.0537.

Consider RRIRRRPPRLPRPRPRPYTWPRP, for which the “shrunken log2 fold change” value was -0.299.

For the sequence RRIRMRPPRLPRPRPRPLPMPRP, the “shrunken log2 fold change” value stood at 0.429.

For the sequence RRIRLRPPRLPRPRPRPHETPRP, the “shrunken log2 fold change” value is -0.236.

As to RRIRERPPRLPRPRPRPSKVPRP, the “shrunken log2 fold change” value is -0.365.

With RRIRARPPRLPRPRPRPVQSPRP, the “shrunken log2 fold change” value was determined as 0.14.

For RRIRYRPPRLPRPRPRPKADPRP, the “shrunken log2 fold change” value amounted to 0.0864.

In the case of RRIRERPPRLPRPRPRPSLDPRP, the “shrunken log2 fold change” value is -0.35.

RRIRERPPRLPRPRPRPVSYPRP: the “shrunken log2 fold change” value was 0.0843.

For the sequence RRIRSRPPRLPRPRPRPSVLPRP, the “shrunken log2 fold change” value was -0.222.

In the case of RRIRLRPPRLPRPRPRPCFNPRP, the “shrunken log2 fold change” value was -0.774.

In the case of RRIRSRPPRLPRPRPRPRVNPRP, the “shrunken log2 fold change” value was -0.189.

With RRIRQRPPRLPRPRPRPNPKPRP, the “shrunken log2 fold change” value was -0.00731.

For the sequence RRIRDRPPRLPRPRPRPTWPPRP, the “shrunken log2 fold change” value worked out at 0.501.

Take RRIRYRPPRLPRPRPRPNWTPRP: the “shrunken log2 fold change” value is -0.00491.

With RRIRERPPRLPRPRPRPGMNPRP, the “shrunken log2 fold change” value was -0.308.

RRIRERPPRLPRPRPRPKNDPRP: the “shrunken log2 fold change” value is -0.467.

Turning to RRIRCRPPRLPRPRPRPYYVPRP, the “shrunken log2 fold change” value is -0.519.

As for RRIRRRPPRLPRPRPRPDDGPRP, the “shrunken log2 fold change” value is -0.147.

In the case of RRIRFRPPRLPRPRPRPGRGPRP, the “shrunken log2 fold change” value is 0.607.
